This is an account of results in patent US20040001835A1, “Prevention or treatment of cancer using integrin alphavbeta3 antagonists in combination with other agents” (MedImmune, Inc., priority 2002, published 2004).

The target of assay [1] is Rabbit Integrin αvβ3 (Rabbit). The experiment in a line: flow cytometry, VX7 rabbit carcinoma cells, 0.5 µg antibody per 5x10^5 cells, against isotype matched control.
Another assay concerns the target Rat Integrin αvβ3 (Rat) (UniProt Q8R2H2). Briefly: flow cytometry, RG2 rat glioma cells, 0.5 µg antibody per 5x10^5 cells, against isotype matched control.
For assay [2], the target named is human Integrin αVβ3 (human) (UniProt P06756). The experiment in a line: flow cytometry, HMVEC endothelial cells, 0.5 µg antibody per 5x10^5 cells, against isotype matched control.
Sequence of human Integrin αVβ3 (human) (P06756 31-1048, chain 1 of 2): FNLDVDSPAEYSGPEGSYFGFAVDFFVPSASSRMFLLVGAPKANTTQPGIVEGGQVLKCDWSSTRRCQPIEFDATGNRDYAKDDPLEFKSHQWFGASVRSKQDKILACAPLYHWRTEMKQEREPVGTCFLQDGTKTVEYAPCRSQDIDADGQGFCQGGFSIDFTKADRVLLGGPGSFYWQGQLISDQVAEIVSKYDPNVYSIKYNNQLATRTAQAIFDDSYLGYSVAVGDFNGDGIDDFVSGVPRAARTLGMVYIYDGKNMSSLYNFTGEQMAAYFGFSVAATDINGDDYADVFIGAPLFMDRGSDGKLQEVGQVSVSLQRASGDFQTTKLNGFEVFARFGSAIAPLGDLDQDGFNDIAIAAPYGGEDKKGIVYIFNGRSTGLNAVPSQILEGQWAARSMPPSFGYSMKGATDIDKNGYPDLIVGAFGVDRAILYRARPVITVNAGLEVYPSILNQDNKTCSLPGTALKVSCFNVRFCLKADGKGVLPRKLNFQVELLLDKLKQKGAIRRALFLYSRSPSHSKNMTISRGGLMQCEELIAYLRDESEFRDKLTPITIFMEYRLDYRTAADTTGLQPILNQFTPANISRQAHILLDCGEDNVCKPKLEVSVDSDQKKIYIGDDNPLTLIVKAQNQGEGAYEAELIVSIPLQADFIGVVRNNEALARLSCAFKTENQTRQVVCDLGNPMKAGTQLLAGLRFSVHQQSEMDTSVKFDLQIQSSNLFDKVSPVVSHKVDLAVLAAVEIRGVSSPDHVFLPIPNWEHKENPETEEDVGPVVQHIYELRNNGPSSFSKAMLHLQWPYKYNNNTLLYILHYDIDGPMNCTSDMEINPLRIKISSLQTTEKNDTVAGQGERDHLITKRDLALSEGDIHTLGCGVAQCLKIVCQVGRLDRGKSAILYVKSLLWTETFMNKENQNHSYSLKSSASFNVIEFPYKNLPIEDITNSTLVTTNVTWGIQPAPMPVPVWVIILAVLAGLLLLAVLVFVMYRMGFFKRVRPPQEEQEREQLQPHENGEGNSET
Sequence of human Integrin αVβ3 (human) (P05106 27-788, chain 2 of 2, further chain): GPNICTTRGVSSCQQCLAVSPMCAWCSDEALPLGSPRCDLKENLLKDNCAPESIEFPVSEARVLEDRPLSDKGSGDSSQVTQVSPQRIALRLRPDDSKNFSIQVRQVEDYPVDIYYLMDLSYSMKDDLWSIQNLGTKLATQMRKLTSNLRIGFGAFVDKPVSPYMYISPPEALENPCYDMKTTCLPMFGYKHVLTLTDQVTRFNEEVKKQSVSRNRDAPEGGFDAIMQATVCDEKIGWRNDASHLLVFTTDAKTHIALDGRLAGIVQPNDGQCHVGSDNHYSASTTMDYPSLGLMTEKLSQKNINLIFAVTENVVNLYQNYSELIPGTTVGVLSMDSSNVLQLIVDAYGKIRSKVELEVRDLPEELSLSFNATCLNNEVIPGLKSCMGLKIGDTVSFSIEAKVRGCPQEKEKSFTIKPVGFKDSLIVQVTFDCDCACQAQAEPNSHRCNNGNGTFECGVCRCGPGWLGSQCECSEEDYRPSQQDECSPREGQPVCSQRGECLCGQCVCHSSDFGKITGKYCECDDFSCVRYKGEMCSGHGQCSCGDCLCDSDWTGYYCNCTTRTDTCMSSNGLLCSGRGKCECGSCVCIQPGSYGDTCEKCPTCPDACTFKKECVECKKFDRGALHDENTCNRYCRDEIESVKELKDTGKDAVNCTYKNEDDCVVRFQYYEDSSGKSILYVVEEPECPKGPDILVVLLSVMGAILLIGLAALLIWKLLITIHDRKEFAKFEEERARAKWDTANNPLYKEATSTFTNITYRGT
For assay [3] the target is unchanged. The experiment in a line: flow cytometry, M21 melanoma cells, 0.5 µg antibody per 5x10^5 cells, against isotype matched control.
Assay [4] deals with Hamster Integrin αvβ3 (Hamster). Briefly: flow cytometry, CCL-49 hamster melanoma cells, 0.5 µg antibody per 5x10^5 cells, against isotype matched control.
Assay [5] concerns the target Rabbit Integrin αvβ3 (Rabbit). Briefly: binding of 125I-labeled Vitaxin to cell lines.
The target in assay [6] is Hamster Integrin αvβ3 (Hamster). Briefly: binding of 125I-labeled Vitaxin to cell lines.
Assay [7] deals with Rabbit Integrin αvβ3 (Rabbit). Briefly: binding of 125I-labeled Vitaxin to RK1 rabbit kidney epithelium cells.
In assay [8] the target is Hamster Integrin αvβ3 (Hamster). Briefly: binding of 125I-labeled Vitaxin to CCL-49 hamster melanoma cells.
The target of assay [9] is human Integrin αVβ3 (human) (UniProt P06756). Briefly: binding of 125I-labeled Vitaxin to HUVEC primary human endothelium.
The target is the same in assay [10]. Briefly: binding of 125I-labeled Vitaxin to M21 human melanoma cells.
For assay [11], the target named is Rabbit Integrin αvβ3 (Rabbit). The experiment in a line: binding of 125I-labeled Vitaxin to VX7 rabbit carcinoma cells.

Sequence of Rat Integrin αvβ3 (Rat) (Q8R2H2 26-787): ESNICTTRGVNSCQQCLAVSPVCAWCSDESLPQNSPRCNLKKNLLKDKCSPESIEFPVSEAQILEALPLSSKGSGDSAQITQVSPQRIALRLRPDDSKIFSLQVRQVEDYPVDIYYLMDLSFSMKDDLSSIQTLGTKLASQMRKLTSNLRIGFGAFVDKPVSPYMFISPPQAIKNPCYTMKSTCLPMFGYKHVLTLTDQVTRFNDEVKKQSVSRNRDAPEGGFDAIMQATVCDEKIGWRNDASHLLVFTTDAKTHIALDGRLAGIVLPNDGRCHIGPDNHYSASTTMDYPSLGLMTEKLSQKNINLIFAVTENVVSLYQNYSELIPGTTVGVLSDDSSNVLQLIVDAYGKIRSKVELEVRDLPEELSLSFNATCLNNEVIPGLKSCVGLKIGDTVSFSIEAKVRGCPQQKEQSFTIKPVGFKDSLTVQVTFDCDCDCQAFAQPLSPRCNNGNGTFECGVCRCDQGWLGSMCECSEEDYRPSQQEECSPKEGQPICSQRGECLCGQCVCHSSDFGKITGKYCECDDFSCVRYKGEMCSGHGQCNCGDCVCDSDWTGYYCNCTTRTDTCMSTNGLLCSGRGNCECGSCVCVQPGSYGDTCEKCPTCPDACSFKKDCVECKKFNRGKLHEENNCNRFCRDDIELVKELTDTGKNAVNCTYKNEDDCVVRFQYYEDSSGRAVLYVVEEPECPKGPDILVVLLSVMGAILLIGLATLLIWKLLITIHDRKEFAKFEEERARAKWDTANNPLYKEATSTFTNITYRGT

On to “LM609, mouse anti-human αVβ3 Integrin mAb (antibody)”, for which the Fold Increase Over Control (mean channel fluorescence) in [1] is 3 fold; with Rat Integrin αvβ3 (Rat), 2.3 fold; in assay [2], 4.3 fold; in assay [3] it was 65 fold; in assay [4], 7.2 fold.
As for “Vitaxin® (humanized monoclonal antibody MEDI-522)”, the fold lower affinity than for human αvβ3 in assay [5] was 4 to 10 fold; in [6], 2 to 3 fold. The Binding Sites (binding sites) in [7] amounted to 42000; in assay [9] it was 81000; in assay [10], 130000; in [11], 160000. The Kd is 23 nM in [7]; 6.9 nM in assay [8]; 3.3 nM in assay [9]; 2.2 nM in assay [10]; 8.9 nM in assay [11]. In addition, the Fold Increase Over Control (mean channel fluorescence) is 17 fold in [1]; 0.95 fold in the assay with Rat Integrin αvβ3 (Rat); 8.9 fold in [2]; 73 fold in assay [3]; 12 fold in assay [4].
Consider F11, mouse anti-rat β3 mAb (antibody), for which the Fold Increase Over Control (mean channel fluorescence) in assay [1] stood at 1 fold; with Rat Integrin αvβ3 (Rat), 11 fold; in [3], 0.99 fold.
